The numbers were not newly measured in article PMC7225939, which cites them from elsewhere.

Where two headings read alike, the source gives them in different places.

One data set concerns the target PCNA (Homo sapiens) (UniProt P12004). Briefly: ITC. (In general: In ITC the heat of successive injections is recorded.)
In another data set the target is pol ι (Homo sapiens). Briefly: SPR. Background: Surface plasmon resonance follows binding to a sensor surface in real time, without labels.
A further data set has as its target pol η (Homo sapiens). In words: SPR.
For another data set, the target named is p15PAF (Homo sapiens). Briefly: ITC.
p15PAF (Homo sapiens), sequence (Q15004 50-77): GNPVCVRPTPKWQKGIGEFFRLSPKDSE
Data set [1] deals with p15 (PAF15) (Homo sapiens) (UniProt Q15004). In words: ITC.
p15 (PAF15) (Homo sapiens), sequence (Q15004 whole entry): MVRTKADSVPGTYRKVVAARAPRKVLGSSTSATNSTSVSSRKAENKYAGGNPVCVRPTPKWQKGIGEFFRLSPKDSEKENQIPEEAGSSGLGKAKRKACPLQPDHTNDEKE
For another data set, the target named is PARG (Homo sapiens). Briefly: ITC.
The next data set addresses FEN1 (Homo sapiens). Briefly: ITC.
The next data set deals with p12 (Homo sapiens). Briefly: ITC.
Data set [2] has as its target ZRANB3 (Homo sapiens). Briefly: ITC.
Target sequence in this assay (Q5FWF4 511-532): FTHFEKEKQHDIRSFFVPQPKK
In the next data set the target is p68 (Homo sapiens). In words: ITC.
Another data set addresses UHRF2 (Homo sapiens). In words: ITC.
The target of a further data set is p21 (Homo sapiens). In words: ITC.
p21 (Homo sapiens), sequence (P38936 139-160): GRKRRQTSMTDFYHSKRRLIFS
For the next data set, the target named is TRAIP (Homo sapiens). Briefly: ITC.
TRAIP (Homo sapiens), sequence (Q9BWF2 447-469): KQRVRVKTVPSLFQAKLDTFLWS
The target of the next data set is DNMT1 (Homo sapiens). Briefly: ITC.
DNMT1 (Homo sapiens), sequence (P26358 161-180): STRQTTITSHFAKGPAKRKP
Another data set has as its target DVC1 (Homo sapiens). Briefly: ITC.
The target of a further data set is RecQ5 (Homo sapiens). Briefly: NMR.
RecQ5 (Homo sapiens), sequence (O94762 952-980): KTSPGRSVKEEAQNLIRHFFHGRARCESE
Another data set deals with Cdt2 (Homo sapiens). Briefly: FP.
The target in a further data set is Cdt1 (Homo sapiens). In words: FP.
Data set [3] has as its target ZRANB3 (Homo sapiens). Briefly: ITC. This is another data set of the same source.
Target sequence in this assay (Q5FWF4 1058-1079): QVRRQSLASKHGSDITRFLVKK

PCNA, sequence (P12004 whole entry): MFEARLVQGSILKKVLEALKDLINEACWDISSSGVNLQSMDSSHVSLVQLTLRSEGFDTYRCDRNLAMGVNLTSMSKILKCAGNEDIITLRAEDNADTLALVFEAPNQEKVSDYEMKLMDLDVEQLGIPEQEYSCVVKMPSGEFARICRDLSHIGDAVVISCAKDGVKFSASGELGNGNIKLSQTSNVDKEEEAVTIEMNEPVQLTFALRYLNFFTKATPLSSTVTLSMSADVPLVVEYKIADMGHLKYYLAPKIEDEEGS
PCNA (Homo sapiens), sequence (P12004 whole entry): as above
p15PAF (from UniProt Q15004), sequence (Q15004 whole entry): as the sequence (Q15004 whole entry) above
pol η (Homo sapiens), sequence (Q9Y253 other isoform, or with tags, fused parts or gaps): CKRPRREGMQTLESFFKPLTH

Take FEN1: the Kd (commonly the concentration at which binding is half-saturated) in the data set with PCNA (Homo sapiens) was 59.9 µM.
Consider p15PAF (from UniProt Q15004), for which the Kd with PCNA (Homo sapiens) was 1.1 µM.
Turning to p68 (DNA polymerase delta subunit), in the data set with PCNA (Homo sapiens), the dissociation constant (Kd) was 16 µM.
On to p21, for which the Kd with PCNA (Homo sapiens) is 0.08 µM.
For the substance ZRANB3, the dissociation constant Kd with PCNA (Homo sapiens) was 4.8 µM.
As for PCNA (from UniProt P12004), the Kd with pol ι (Homo sapiens) was 0.39 µM; with pol η (Homo sapiens) it was 0.4 µM; with p15PAF (Homo sapiens), 5.56 µM; in [1], 1.1 µM; in the data set with PARG (Homo sapiens), 3.3 µM; with FEN1 (Homo sapiens) it was 59.9 µM. For the same substance, the Kd with p12 (Homo sapiens) is 38 µM; with ZRANB3 (Homo sapiens) [2], 4.8 µM; with p68 (Homo sapiens) it was 16 µM; with UHRF2 (Homo sapiens), 25.7 µM; in the data set with p21 (Homo sapiens), 0.08 µM; with TRAIP (Homo sapiens) it was 30.7 µM. Besides, the dissociation constant (Kd) in the data set with DNMT1 (Homo sapiens) is 1 µM; in the data set with DVC1 (Homo sapiens), 15.6 µM; with RecQ5 (Homo sapiens) it was 210 µM; with Cdt2 (Homo sapiens), 0.057 µM; with Cdt1 (Homo sapiens) it was 7.2 µM; with ZRANB3 (Homo sapiens) [3], 9.24 µM.
As for p15PAF, in the data set with PCNA (Homo sapiens), the Kd is 5.56 µM.
